We go through three molecules from patent US20140148501, “DNA APTAMERS FOR PROMOTING REMYELINATION” (MAYO FOUNDATION FOR MEDICAL EDUCATION AND RESEARCH, published 2014).

In data set [1] the target is T1, Myelin basic protein isoforms containing exon 2-encoded sequence (17 kDa and 21.5 kDa) (Mus musculus, UniProt P04370-4 P04370-4:2-195). Put plainly: southwestern blot; 17 and 21.5 kDa bands bound only by 3064. The following applies: tags: none; from crude SJL mouse CNS myelin, SDS-PAGE separated and blotted to PVDF; label: 5'-fluorescein; putative intramolecular G4. The method, then: (§1) To promote intramolecular folding, aptamer stock solutions (5 μM) in PBS were heated to 90° C., MgCl₂ was added to a final concentration of 1 mM, and solutions were allowed to cool room temperature. Myelin stock was diluted in PBS and sonicated on ice. Fluorescent folded aptamers were added to different amounts of myelin suspension and incubated at 37° C. for 3 hours. Insoluble material with bound aptamers was recovered by centrifugation for 30 seconds in a microcentrifuge. The pellet was washed with 100 μL PBS and again recovered by centrifugation. After phenol extraction and ethanol precipitation, fluorescent aptamers were quantitated in black plastic 96-well plates using a Typhoon Fluorescent Imaging system (GE Healthcare Biosciences; Piscataway, N.J.). For Southwestern blotting, 15 μg crude myelin protein was separated in each lane of a 10% Bis-Tris SDS polyacrylamide gel in 2-(N-morpholino)ethanesulfonic acid (MES) buffer. […] Fluorescein fluorescence was then detected on membranes using the Typhoon Fluorescent Imaging system. […]
T1 sequence (P04370 other isoform, or with tags, fused parts or gaps): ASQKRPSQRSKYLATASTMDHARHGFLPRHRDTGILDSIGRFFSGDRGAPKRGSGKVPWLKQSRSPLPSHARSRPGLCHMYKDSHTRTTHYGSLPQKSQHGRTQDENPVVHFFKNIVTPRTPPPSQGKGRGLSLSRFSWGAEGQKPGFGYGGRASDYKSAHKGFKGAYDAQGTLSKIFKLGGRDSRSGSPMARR
(§2) The specificity of anti-myelin DNA aptamer 3064 and controls 3060 and 3202 was analyzed by assessing the binding of fluorescent aptamers to crude myelin protein suspension using centrifugal sedimentation to recover bound aptamers (FIG. 5A).

For data set [2], the target named is T2, Myelin basic protein 18.5 kDa isoform (Mus musculus, UniProt P04370-5 P04370-5:2-169). Put plainly: southwestern blot; control selected for chelated Ni. The following applies: tags: none; from crude SJL mouse CNS myelin, SDS-PAGE separated and blotted to PVDF; label: 5'-fluorescein; putative intramolecular G4. The method, then: (§3) After electrophoresis, duplicate lanes were either stained with Coomassie blue dye or transferred to polyvinylidene fluoride (PVDF) membrane by electroblotting. Western blotting was performed by standard methods using antibodies with the indicated specificities. For southwestern blots, membranes were blocked for 30 minutes at 37° C. in tris-buffered saline and TWEEN® 20 (TBST) buffer containing with 1% bovine serum albumin (BSA), 10% non-fat dry milk, 2 mg/mL sonicated and heat-denatured salmon testis DNA, and TWEEN® 20 detergent. Folded fluorescent aptamers (5 μM final concentration) were then added in PBS containing 1 mM MgCl₂ and incubated with PVDF membranes for 14 hours, followed by washing in TBST buffer and then in 0.5× tris/borate/EDTA (TBE) buffer. Fluorescein fluorescence was then detected on membranes using the Typhoon Fluorescent Imaging system. Tryptic peptide mass fingerprinting was performed.
T2 sequence (P04370 other isoform, or with tags, fused parts or gaps): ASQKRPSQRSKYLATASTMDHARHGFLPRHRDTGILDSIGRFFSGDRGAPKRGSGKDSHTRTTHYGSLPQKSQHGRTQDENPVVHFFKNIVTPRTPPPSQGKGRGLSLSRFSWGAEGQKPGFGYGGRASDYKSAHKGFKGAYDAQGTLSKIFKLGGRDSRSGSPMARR
(§4) The specificity of anti-myelin DNA aptamer 3064 and controls 3060 and 3202 was analyzed by assessing the binding of fluorescent aptamers to crude myelin protein suspension using centrifugal sedimentation to recover bound aptamers (FIG. 5A). […] To further assess specificity, crude myelin proteins were separated by SDS-polyacrylamide gel electrophoresis and stained with Coomassie dye (myelin; FIG. 5B, left lane), or blotted to polyvinylidene (PVDF) membrane and probed with antibodies against myelin basic protein (MBP), proteolipid protein (PLP), or MOG in western blots (FIG. 5B, lanes 2-4), or probed with fluorescent aptamers 3202, 3060 or 3064 in southwestern blots (FIG. 5B, lanes 5-7). […] In particular, control aptamer 3060 and myelin-specific aptamer 3064 both bound to three myelin proteins with apparent molecular weights of 12.5 kDa, 18.5 kDa, and 23.8 kDa. Based on western analysis and mass spectrometry of tryptic peptides, these proteins were PLP, the 18.5 kDa isoform of MBP, and MOG, respectively.

Data set [3] has as its target T3, Proteolipid protein PLP (12.5 kDa band) (Mus musculus, UniProt P60202 P60202:2-277).
T3 sequence: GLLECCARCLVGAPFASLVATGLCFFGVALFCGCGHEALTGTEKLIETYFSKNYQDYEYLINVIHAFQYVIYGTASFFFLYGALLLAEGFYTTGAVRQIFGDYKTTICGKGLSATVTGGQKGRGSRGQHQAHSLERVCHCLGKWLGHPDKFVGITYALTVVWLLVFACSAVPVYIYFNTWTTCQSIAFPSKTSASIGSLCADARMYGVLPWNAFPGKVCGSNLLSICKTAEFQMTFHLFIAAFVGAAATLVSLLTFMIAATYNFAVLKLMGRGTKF
The data set is described as above. The following applies: tags: none; from crude SJL mouse CNS myelin, SDS-PAGE separated and blotted to PVDF; label: 5'-fluorescein; putative intramolecular G4. The method, then:
as §3, §4

The target of data set [4] is T4, Myelin oligodendrocyte glycoprotein MOG (23.8 kDa band) (Mus musculus, UniProt Q61885 Q61885:29-246).
T4 sequence: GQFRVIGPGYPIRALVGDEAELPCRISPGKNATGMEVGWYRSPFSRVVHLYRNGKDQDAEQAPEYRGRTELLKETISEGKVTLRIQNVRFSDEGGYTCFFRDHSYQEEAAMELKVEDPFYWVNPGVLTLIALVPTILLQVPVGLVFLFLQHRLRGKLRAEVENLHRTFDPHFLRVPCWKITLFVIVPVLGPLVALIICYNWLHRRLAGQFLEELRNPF
Described as above. The following applies: tags: none; from crude SJL mouse CNS myelin, SDS-PAGE separated and blotted to PVDF; label: 5'-fluorescein; putative intramolecular G4. The method, then: as §3, §4

Data set [5] concerns the target T2, Myelin basic protein 18.5 kDa isoform. Put plainly: southwestern blot; 5 uM aptamer, PBS, 1 mM MgCl2. The following applies: tags: none; from crude SJL mouse CNS myelin, SDS-PAGE separated and blotted to PVDF; label: 5'-fluorescein; putative intramolecular G4. The method, then: (§5) To promote intramolecular folding, aptamer stock solutions (5 μM) in PBS were heated to 90° C., MgCl₂ was added to a final concentration of 1 mM, and solutions were allowed to cool room temperature. Myelin stock was diluted in PBS and sonicated on ice. Fluorescent folded aptamers were added to different amounts of myelin suspension and incubated at 37° C. for 3 hours. Insoluble material with bound aptamers was recovered by centrifugation for 30 seconds in a microcentrifuge. The pellet was washed with 100 μL PBS and again recovered by centrifugation. After phenol extraction and ethanol precipitation, fluorescent aptamers were quantitated in black plastic 96-well plates using a Typhoon Fluorescent Imaging system (GE Healthcare Biosciences; Piscataway, N.J.). For Southwestern blotting, 15 μg crude myelin protein was separated in each lane of a 10% Bis-Tris SDS polyacrylamide gel in 2-(N-morpholino)ethanesulfonic acid (MES) buffer. After electrophoresis, duplicate lanes were either stained with Coomassie blue dye or transferred to polyvinylidene fluoride (PVDF) membrane by electroblotting. Western blotting was performed by standard methods using antibodies with the indicated specificities. For southwestern blots, membranes were blocked for 30 minutes at 37° C. in tris-buffered saline and TWEEN® 20 (TBST) buffer containing with 1% bovine serum albumin (BSA), 10% non-fat dry milk, 2 mg/mL sonicated and heat-denatured salmon testis DNA, and TWEEN® 20 detergent. Folded fluorescent aptamers (5 μM final concentration) were then added in PBS containing 1 mM MgCl₂ and incubated with PVDF membranes for 14 hours, followed by washing in TBST buffer and then in 0.5× tris/borate/EDTA (TBE) buffer. Fluorescein fluorescence was then detected on membranes using the Typhoon Fluorescent Imaging system. Tryptic peptide mass fingerprinting was performed.
as §2

Data set [6] addresses T3, Proteolipid protein PLP (12.5 kDa band). Briefly: southwestern blot; 5 uM aptamer, PBS, 1 mM MgCl2. The following applies: tags: none; from crude SJL mouse CNS myelin, SDS-PAGE separated and blotted to PVDF; label: 5'-fluorescein; putative intramolecular G4. The method, then: as §5, §2
The target in data set [7] is T4, Myelin oligodendrocyte glycoprotein MOG …. Put plainly: southwestern blot; 5 uM aptamer, PBS, 1 mM MgCl2. The following applies: tags: none; from crude SJL mouse CNS myelin, SDS-PAGE separated and blotted to PVDF; label: 5'-fluorescein; putative intramolecular G4. The method, then: as §5, §2
Data set [8] addresses T1, Myelin basic protein isoforms …. Briefly: southwestern blot; unique to 3064; 5 uM aptamer, PBS, 1 mM MgCl2, 14 h. The following applies: tags: none; from crude SJL mouse CNS myelin, SDS-PAGE separated and blotted to PVDF; label: 5'-fluorescein; putative intramolecular G4. The method, then: as §1, §2
Data set [9] addresses T2, Myelin basic protein 18.5 kDa isoform. Briefly: southwestern blot. The following applies: tags: none; from crude SJL mouse CNS myelin, SDS-PAGE separated and blotted to PVDF; label: 5'-fluorescein. The method, then: as §5, §2
Data set [10] concerns the target T3, Proteolipid protein PLP (12.5 kDa band). Put plainly: southwestern blot. The following applies: tags: none; from crude SJL mouse CNS myelin, SDS-PAGE separated and blotted to PVDF; label: 5'-fluorescein. The method, then:
as §5, §2

The target in data set [11] is T4, Myelin oligodendrocyte glycoprotein MOG …. Briefly: southwestern blot. The following applies: tags: none; from crude SJL mouse CNS myelin, SDS-PAGE separated and blotted to PVDF; label: 5'-fluorescein. The method, then:
as §5, §2

The target in data set [12] is T1, Myelin basic protein isoforms …. Briefly: southwestern blot. The following applies: tags: none; from crude SJL mouse CNS myelin, SDS-PAGE separated and blotted to PVDF; label: 5'-fluorescein. The method, then:
as §5, §2

For the molecule AAAGAACAAAAAGGATAAAGGGGGAGACGGGGGGAACATGGGG (ssDNA) [3060], the binding result in data set [1] was “no binding”; in data set [2] it was “binds”; in data set [3], “binds”; in data set [4], “binds”.

Turning to GGGTCGGCGGGTGGGGTGGGAGGTGGTCTTGTCTCTGGGT (ssDNA) [3064], the binding result in [5], in data set [6], in data set [7] and in data set [8] was “binds” throughout.

For the molecule TTTTTTTTTTTTTTTTTTTTTTTTTTTTTTTTTTTTTTTT (ssDNA) [3202 (dT40)], the binding result in data set [9], in data set [10], in data set [11] and in data set [12] was “no binding” in each case.
